Measurements: patent publication US20210054049A1 (MERUS N V, published 2021)

B1: PB27538p43 (bispecific antibody)
heavy (part 1 of 2) 1: EVQLVETGGGVVQPGRSLRLSCAASGFTFSQYAMHWVRQAPGKGLEWVAIISHDERNKYYVDSGMGRFTISRDNSKNTLFLQMNSLRSEDTAVYYCARDMRKGGYYYGFDVWGQGTTVTVSSASTKGPSVFPLAPSSKSTSGGTAALGCLVKDYFPEPVTVSWNSGALTSGVHTFPAVLQSSGLYSLSSVVTVPSSSLGTQTYICNVNHKPSNTKVDK
heavy (part 2 of 2) 1: not shown
heavy (part 1 of 2) 2: not shown
heavy (part 2 of 2) 2: not shown
light: not shown
notes: also called PB27538p44; PB27538p33
B2: PB27538p49 (bispecific antibody)
heavy (part 1 of 2) 1: EVQLVETGGGVVQPGRSLRLSCAASGFTFSQYAMHWVRQAPGKGLEWVAIISHDERNKYYVDSGMGRFTISRDNSKNTLFLQMNSLRSEDTAVYYCARDMRKGGYYYGFDVWGQGTTVTVSSASTKGPSVFPLAPSSKSTSGGTAALGCLVKDYFPEPVTVSWNSGALTSGVHTFPAVLQSSGLYSLSSVVTVPSSSLGTQTYICNVNHKPSNTKVDK
heavy (part 2 of 2) 1: not shown
heavy (part 1 of 2) 2: not shown
heavy (part 2 of 2) 2: not shown
light: not shown
notes: also called PB27538p39; MG1516C3209 x MG3462C3217
B3: PB27538p51 (bispecific antibody)
heavy (part 1 of 2) 1: EVQLVETGGGVVQPGRSLRLSCAASGFTFSQYAMHWVRQAPGKGLEWVAIISHDERNKYYVDSGMGRFTISRDNSKNTLFLQMNSLRSEDTAVYYCARDMRKGGYYYGFDVWGQGTTVTVSSASTKGPSVFPLAPSSKSTSGGTAALGCLVKDYFPEPVTVSWNSGALTSGVHTFPAVLQSSGLYSLSSVVTVPSSSLGTQTYICNVNHKPSNTKVDK
heavy (part 2 of 2) 1: not shown
heavy (part 1 of 2) 2: not shown
heavy (part 2 of 2) 2: not shown
light: not shown
notes: also called PB27538p41; MG1516C3209 x MG3462C3219
B4: PB27538p48 (bispecific antibody)
heavy (part 1 of 2) 1: EVQLVETGGGVVQPGRSLRLSCAASGFTFSQYAMHWVRQAPGKGLEWVAIISHDERNKYYVDSGMGRFTISRDNSKNTLFLQMNSLRSEDTAVYYCARDMRKGGYYYGFDVWGQGTTVTVSSASTKGPSVFPLAPSSKSTSGGTAALGCLVKDYFPEPVTVSWNSGALTSGVHTFPAVLQSSGLYSLSSVVTVPSSSLGTQTYICNVNHKPSNTKVDK
heavy (part 2 of 2) 1: not shown
heavy (part 1 of 2) 2: not shown
heavy (part 2 of 2) 2: not shown
light: not shown
notes: also called PB27538p38; MG1516C3209 x MG3462C3216
B5: PB27538p46 (bispecific antibody)
heavy (part 1 of 2) 1: EVQLVETGGGVVQPGRSLRLSCAASGFTFSQYAMHWVRQAPGKGLEWVAIISHDERNKYYVDSGMGRFTISRDNSKNTLFLQMNSLRSEDTAVYYCARDMRKGGYYYGFDVWGQGTTVTVSSASTKGPSVFPLAPSSKSTSGGTAALGCLVKDYFPEPVTVSWNSGALTSGVHTFPAVLQSSGLYSLSSVVTVPSSSLGTQTYICNVNHKPSNTKVDK
heavy (part 2 of 2) 1: not shown
heavy (part 1 of 2) 2: not shown
heavy (part 2 of 2) 2: not shown
light: not shown
notes: also called PB27538p36; MG1516C3211 x MG3462C3215
B6: PB27538p45 (bispecific antibody)
heavy (part 1 of 2) 1: EVQLVETGGGVVQPGRSLRLSCAASGFTFSQYAMHWVRQAPGKGLEWVAIISHDERNKYYVDSGMGRFTISRDNSKNTLFLQMNSLRSEDTAVYYCARDMRKGGYYYGFDVWGQGTTVTVSSASTKGPSVFPLAPSSKSTSGGTAALGCLVKDYFPEPVTVSWNSGALTSGVHTFPAVLQSSGLYSLSSVVTVPSSSLGTQTYICNVNHKPSNTKVDK
heavy (part 2 of 2) 1: not shown
heavy (part 1 of 2) 2: not shown
heavy (part 2 of 2) 2: not shown
light: not shown
notes: also called PB27538p35; MG1516C3210 x MG3462C3215
B7: PB27538p52 (bispecific antibody)
heavy (part 1 of 2) 1: EVQLVETGGGVVQPGRSLRLSCAASGFTFSQYAMHWVRQAPGKGLEWVAIISHDERNKYYVDSGMGRFTISRDNSKNTLFLQMNSLRSEDTAVYYCARDMRKGGYYYGFDVWGQGTTVTVSSASTKGPSVFPLAPSSKSTSGGTAALGCLVKDYFPEPVTVSWNSGALTSGVHTFPAVLQSSGLYSLSSVVTVPSSSLGTQTYICNVNHKPSNTKVDK
heavy (part 2 of 2) 1: not shown
heavy (part 1 of 2) 2: not shown
heavy (part 2 of 2) 2: not shown
light: not shown
notes: also called PB27538p42; MG1516C3209 x MG3462C3221
B8: PB27538p50 (bispecific antibody)
heavy (part 1 of 2) 1: EVQLVETGGGVVQPGRSLRLSCAASGFTFSQYAMHWVRQAPGKGLEWVAIISHDERNKYYVDSGMGRFTISRDNSKNTLFLQMNSLRSEDTAVYYCARDMRKGGYYYGFDVWGQGTTVTVSSASTKGPSVFPLAPSSKSTSGGTAALGCLVKDYFPEPVTVSWNSGALTSGVHTFPAVLQSSGLYSLSSVVTVPSSSLGTQTYICNVNHKPSNTKVDK
heavy (part 2 of 2) 1: not shown
heavy (part 1 of 2) 2: not shown
heavy (part 2 of 2) 2: not shown
light: not shown
notes: also called PB27538p40; MG1516C3209 x MG3462C3218

The binders below were run against c-MET (UniProt P08581 25-932) (assay: ELISA on c-MET coated plates).
Chain of c-MET (P08581 25-932 limits assumed): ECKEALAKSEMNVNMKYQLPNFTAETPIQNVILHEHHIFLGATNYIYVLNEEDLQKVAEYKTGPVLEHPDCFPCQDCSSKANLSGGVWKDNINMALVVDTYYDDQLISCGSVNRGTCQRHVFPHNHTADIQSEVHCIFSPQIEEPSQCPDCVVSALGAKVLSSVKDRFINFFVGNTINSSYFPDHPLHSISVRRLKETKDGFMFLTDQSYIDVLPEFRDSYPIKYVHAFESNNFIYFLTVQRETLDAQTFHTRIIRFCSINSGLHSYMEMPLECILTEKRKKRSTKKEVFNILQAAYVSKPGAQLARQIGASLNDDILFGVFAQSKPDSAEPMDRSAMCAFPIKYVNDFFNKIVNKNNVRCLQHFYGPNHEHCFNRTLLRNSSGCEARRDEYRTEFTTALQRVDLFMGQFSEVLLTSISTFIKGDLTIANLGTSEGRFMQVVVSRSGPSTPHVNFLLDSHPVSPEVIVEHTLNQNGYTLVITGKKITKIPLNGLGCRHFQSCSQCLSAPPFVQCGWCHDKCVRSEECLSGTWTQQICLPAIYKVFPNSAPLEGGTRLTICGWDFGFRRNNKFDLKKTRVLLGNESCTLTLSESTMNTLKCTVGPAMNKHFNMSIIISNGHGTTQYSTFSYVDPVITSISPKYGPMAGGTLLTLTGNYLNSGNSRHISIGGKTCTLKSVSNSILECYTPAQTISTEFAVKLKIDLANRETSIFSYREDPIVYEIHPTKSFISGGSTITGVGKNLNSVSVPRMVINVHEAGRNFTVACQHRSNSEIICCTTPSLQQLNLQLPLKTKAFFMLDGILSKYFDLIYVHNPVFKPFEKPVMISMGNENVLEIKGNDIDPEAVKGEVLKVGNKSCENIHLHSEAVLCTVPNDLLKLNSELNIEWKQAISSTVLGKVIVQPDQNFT
B1: binds.
B2: binds.
B3: binds.
B4: binds.
B5: binds.
B6: binds.
B7: binds.
B8: binds.
